The record followed here is paper PMC5573408 (2017).

No end group written: not given here. fluorescein = fluorescein, fluorescent label at the C-terminus

Test [1] has as its target T1, Cannabinoid receptor 2 (Homo sapiens, UniProt P34972). As to the kind of experiment: radioligand binding [3H]WIN55,212-2, ternary complex allosteric model.
Test [2] deals with T1, Cannabinoid receptor 2. As to the kind of experiment: radioligand binding [3H]CP55,940, ternary complex allosteric model.
For test [3], the target named is T1, Cannabinoid receptor 2. Description: fluorescent pepcan-F4 displacement on CHO-K1-hCB2 cells.
The target in test [4] is T1, Cannabinoid receptor 2. Description: fluorescence saturation binding on CHO-K1-hCB2 cells.

T1 sequence (P34972 whole entry): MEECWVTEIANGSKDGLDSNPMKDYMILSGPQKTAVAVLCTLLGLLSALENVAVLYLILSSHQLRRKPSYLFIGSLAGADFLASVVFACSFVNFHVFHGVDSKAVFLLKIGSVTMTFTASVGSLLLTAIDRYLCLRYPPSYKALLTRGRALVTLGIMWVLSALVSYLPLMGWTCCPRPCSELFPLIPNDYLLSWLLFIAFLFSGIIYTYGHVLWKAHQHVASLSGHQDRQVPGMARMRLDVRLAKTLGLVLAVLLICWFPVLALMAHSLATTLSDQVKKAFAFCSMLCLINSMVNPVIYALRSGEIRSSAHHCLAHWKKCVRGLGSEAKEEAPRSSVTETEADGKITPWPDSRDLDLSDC

By Kd is commonly meant the equilibrium constant for the complex coming apart. RVDPVNFKLLSH ([3H]WIN55,212-2 present): in test [1], the Kd worked out at 53 nM. This counts as double-digit nanomolar.

As for RVDPVNFKLLSH ([3H]CP55,940 present), binding in test [2] was characterised by a dissociation constant (Kd) of 58 nM.

One may read the Ki as a measure of affinity in units of concentration, obtained from inhibition or displacement. In turn, RVDPVNFKLLSH had an inhibition constant Ki in test [3] of 44 nM.

RVDPVNFKLLSH-fluorescein [Pepcan-F4] showed a Kd in test [4] of 122 nM. This counts as sub-micromolar.
